In brackets after ≈: the same amount, converted by molar mass. Entries after “also recorded” stand apart in the source; their conditions may differ. Marks after values point to notes of the source that are not given here.
Assays:
[1] = tested on: Sal-resistant mutants of E. coli D21f2tolC (rpoC / rpoB substitutions); test: Broth microdilution resistance / cross-resistance levels of spontaneous Sal-resistant mutants; assay type: cell-based, Escherichia coli; conditions: for cross-resistance level (MIC/MICwild-type): values <1 = hypersensitivity; for cross-resistance of Sal-resistant mutants (in words): broth microdilution (Table 4)
Method: (§1) Isolation of Sal-Resistant Mutants: Spontaneous Sal-Resistant Mutants. E. coli D21f2tolC (6) was cultured to saturation in 5 ml LB broth (7) at 37° C., cultures were centrifuged, and cell pellets (˜3×10^9 cells) were re-suspended in 50 μl LB broth and plated on LB agar (7) containing 1.2 μg/ml Sal (a concentration four times the minimal concentration required to prevent growth of wild-type cells under these conditions), and incubated 24-48 h at 37° C. Sal-resistant mutants were identified by the ability to form colonies on this medium and were confirmed by re-streaking on the same medium.
(§2) Quantitation of Resistance to Sal. Resistance to Sal was quantified by performing broth microdilution assays. Single colonies were inoculated into 3 ml LB broth, and incubated 3-6 h at 37° C. with shaking. Diluted aliquots (2×10^4 cells in 98 μl LB broth; concentrations determined using OD600=1 for 10^9 cells) were dispensed into wells of a 96-well plate, were supplemented with 2 μl of a 2-fold dilution series of Sal in methanol (final concentrations of […], 0.390, 0.195, 0.0975, 0.0488, 0.0244, 0.0122, and 0.00609 μg/ml) or 2 μl of a solvent blank, and were incubated 16 h at 37° C. with shaking. The minimum inhibitory concentration (MIC) was defined as the lowest tested concentration of Sal that inhibited bacterial growth by 95%.
(§3) Quantitation of Cross-Resistance to Rifampin and CBR703. Cross-resistance levels were determined analogously to resistance levels, using 0.12-0.78 μg/ml of rifampin (Sigma, Inc.) and 0.39-25 μg/ml of CBR703 (Maybridge, Inc.).

E. coli D21f2tolC [2] = test: Broth microdilution MIC, wild-type rpoC and rpoB; assay type: cell-based, Escherichia coli; conditions: LB broth, 16 h at 37° C., lowest concentration inhibiting growth by 95%
Method: as §2, §3

E. coli D21f2tolC [3] = test: Spontaneous resistance frequency by plating on LB agar containing inhibitor; assay type: cell-based, Escherichia coli; conditions: LB agar, each compound at 4×MIC, colonies counted after 24 h at 37° C.
Excerpt: Sal-Resistant Mutants Map to RNAP-Subunit Genes. To determine whether Sal kills bacteria by inhibiting RNAP, spontaneous Sal-resistant mutants were isolated, and genes for RNAP subunits in Sal-resistant mutants were PCR-amplified and sequenced (FIG. 3A). Spontaneous Sal-resistant mutants were isolated by plating high-density cultures of E. coli D21f2tolC (˜3×10^9 cells per plate) on agar containing Sal and identifying rare resistant colonies (FIG. 3B). For each Sal-resistant mutant, genomic DNA was prepared, and the genes for the largest RNAP subunit and the second-largest RNAP subunit—rpoC encoding RNAP β′ subunit and rpoB encoding RNAP β subunit were PCR-amplified and sequenced (FIG. 3C).
Co-Administration of Sal and Rifampin Reduces Spontaneous Resistance to Undetectable Levels.
Co-Administration of Sal and CBR703 Reduces Spontaneous Resistance to Undetectable Levels.
as §1

[4] = biological target: E. coli RNAP, β′ subunit 782 Gly→Cys (Escherichia coli) (UniProt P0A8T7); test: cell-based or functional assay
[5] = biological target: E. coli RNAP, β′ subunit 775 Ser→Ala (Escherichia coli) (UniProt P0A8T7); test: cell-based or functional assay
[6] = biological target: E. coli RNAP, β subunit 526 His→Tyr (Escherichia coli) (UniProt P0A8T7); test: cell-based or functional assay
[7] = biological target: E. coli RNAP, β′ subunit 783 Leu→Arg (Escherichia coli) (UniProt P0A8T7); test: cell-based or functional assay
[8] = biological target: E. coli RNAP, β′ subunit 758 Pro→Thr (Escherichia coli) (UniProt P0A8T7); test: cell-based or functional assay
[9] = biological target: E. coli RNAP, β′ subunit 697 Met→Val (Escherichia coli) (UniProt P0A8T7); test: cell-based or functional assay
[10] = biological target: E. coli RNAP, β subunit 531 Ser→Leu (Escherichia coli) (UniProt P0A8T7); test: cell-based or functional assay
[11] = biological target: E. coli RNAP, β′ subunit 738 Arg→Ser (Escherichia coli) (UniProt P0A8T7); test: cell-based or functional assay
[12] = biological target: E. coli RNAP, β subunit 561 Ile→Ser (Escherichia coli) (UniProt P0A8T7); test: cell-based or functional assay
[13] = biological target: E. coli RNAP, β′ subunit 780 Arg→Cys (Escherichia coli) (UniProt P0A8T7); test: cell-based or functional assay
[14] = biological target: E. coli RNAP, β′ subunit 738 Arg→Pro (Escherichia coli) (UniProt P0A8T7); test: cell-based or functional assay
[15] = biological target: E. coli RNAP, β′ subunit 738 Arg→His (Escherichia coli) (UniProt P0A8T7); test: cell-based or functional assay
[16] = biological target: E. coli RNAP, β subunit 569 Ile→Ser (Escherichia coli) (UniProt P0A8T7); test: cell-based or functional assay
[17] = biological target: Escherichia coli RNA polymerase with wild-type rpoC and wild-type rpoB, in E. coli D21f2tolC (Escherichia coli) (UniProt P0A8T7); test: cell-based or functional assay
[18] = biological target: E. coli RNAP, β′ subunit 763 Phe→Cys (Escherichia coli) (UniProt P0A8T7); test: cell-based or functional assay
[19] = biological target: E. coli RNAP, β subunit 677 Asn→Lys (Escherichia coli) (UniProt P0A8T7); test: cell-based or functional assay
[20] = biological target: E. coli RNAP, β subunit 680 Leu→Met (Escherichia coli) (UniProt P0A8T7); test: cell-based or functional assay
[21] = biological target: E. coli RNAP, β′ subunit 738 Arg→Cys (Escherichia coli) (UniProt P0A8T7); test: cell-based or functional assay
[22] = biological target: E. coli RNAP, β′ subunit 748 Ala→Glu (Escherichia coli) (UniProt P0A8T7); test: cell-based or functional assay
[23] = biological target: E. coli RNAP, β subunit 677 Asn→His (Escherichia coli) (UniProt P0A8T7); test: cell-based or functional assay
[24] = biological target: E. coli RNAP, β′ subunit 779 Ala→Val (Escherichia coli) (UniProt P0A8T7); test: cell-based or functional assay
[25] = biological target: E. coli RNAP, β subunit 516 Asp→Val (Escherichia coli) (UniProt P0A8T7); test: cell-based or functional assay
[26] = biological target: E. coli RNAP, β′ subunit 690 Asn→Asp (Escherichia coli) (UniProt P0A8T7); test: cell-based or functional assay
[27] = biological target: E. coli RNAP, β′ subunit 779 Ala→Thr (Escherichia coli) (UniProt P0A8T7); test: cell-based or functional assay
[28] = biological target: E. coli RNAP, β subunit 526 His→Asp (Escherichia coli) (UniProt P0A8T7); test: cell-based or functional assay
[29] = biological target: E. coli RNAP, β subunit 665 Ala→Glu (Escherichia coli) (UniProt P0A8T7); test: cell-based or functional assay
[30] = biological target: E. coli RNAP, β subunit 675 Asp→Ala (Escherichia coli) (UniProt P0A8T7); test: cell-based or functional assay
[31] = biological target: E. coli RNAP, β′ subunit 758 Pro→Ser (Escherichia coli) (UniProt P0A8T7); test: cell-based or functional assay

`ONC(=Nc1ccccc1)c1cccc(C(F)(F)F)c1` [CBR703] was tested, and the “cross-resistance level (MIC/MICwild-type)” value ([1]; Sal-resistant mutant rpoB (RNAP β subunit) 569 Ile→Ser) was 1, the “cross-resistance level (MIC/MICwild-type)” value ([1]; Sal-resistant mutant rpoB (RNAP β subunit) 675 Asp→Ala) was “≦0.25” and the “cross-resistance level (MIC/MICwild-type)” value ([1]; Sal-resistant mutant rpoB (RNAP β subunit) 677 Asn→His) was 1. For the same compound, the “cross-resistance level (MIC/MICwild-type)” value ([1]; Sal-resistant mutant rpoB (RNAP β subunit) 677 Asn→Lys) was “≦0.25”, the “cross-resistance level (MIC/MICwild-type)” value ([1]; Sal-resistant mutant rpoC (RNAP β′ subunit) 690 Asn→Asp) was “≦0.25^b” and the “cross-resistance level (MIC/MICwild-type)” value ([1]; Sal-resistant mutant rpoC (RNAP β′ subunit) 697 Met→Val) was 0.5. For the same compound, the “cross-resistance level (MIC/MICwild-type)” value ([1]; Sal-resistant mutant rpoC (RNAP β′ subunit) 738 Arg→Cys) was “≦0.25”, the “cross-resistance level (MIC/MICwild-type)” value ([1]; Sal-resistant mutant rpoC (RNAP β′ subunit) 738 Arg→Pro) was “≦0.25” and the “cross-resistance level (MIC/MICwild-type)” value ([1]; Sal-resistant mutant rpoC (RNAP β′ subunit) 738 Arg→Ser) was 1. For the same compound, the “cross-resistance level (MIC/MICwild-type)” value ([1]; Sal-resistant mutant rpoC (RNAP β′ subunit) 748 Ala→Glu) was “≦0.25”, the “cross-resistance level (MIC/MICwild-type)” value ([1]; Sal-resistant mutant rpoC (RNAP β′ subunit) 763 Phe→Cys) was “≦0.25” and the “cross-resistance level (MIC/MICwild-type)” value ([1]; Sal-resistant mutant rpoC (RNAP β′ subunit) 779 Ala→Thr) was 1. The “cross-resistance level (MIC/MICwild-type)” value ([1]; Sal-resistant mutant rpoC (RNAP β′ subunit) 779 Ala→Val) was “≦0.25”, the “cross-resistance level (MIC/MICwild-type)” value ([1]; Sal-resistant mutant rpoC (RNAP β′ subunit) 780 Arg→Cys) was 0.5 and the “cross-resistance of Sal-resistant mutants (in words)” value [1] was “no cross-resistance”. For the same compound, the “MIC with wild-type rpoC and wild-type rpoB” value (E. coli D21f2tolC [2]) was 6.25 µg/mL and the spontaneous resistance frequency (E. coli D21f2tolC [3]) was 2×10^−10.
In the case of `CO[C@H]1/C=C/O[C@@]2(C)Oc3c(C)c(O)c4c(O)c(c(/C=N/N5CCN(C)CC5)c(O)c4c3C2=O)NC(=O)/C(C)=C\C=C\[C@H](C)[C@H](O)[C@@H](C)[C@@H](O)[C@@H](C)[C@H](OC(C)=O)[C@@H]1C` [rifampin], the “cross-resistance of Sal-resistant mutants (in words)” value [1] is reported as “not cross-resistant; also recorded: no cross-resistance”, the “hypersensitivity of Sal-resistant mutants” value ([1]; {}) is reported as 2 fold and the MIC (E. coli D21f2tolC [2]; Escherichia coli, D21F2TOLC) is reported as 0.098 µg/mL (≈ 0.119 µM). For the same compound, the spontaneous resistance frequency (E. coli D21f2tolC [3]) was 1×10^−8 and the spontaneous resistance frequency (E. coli D21f2tolC [3]; listed as Rif) was 1 × 10^−8.
salinamide A (peptide) was tested, and the resistance level (MIC/MICwild-type), plasmid-borne rpoC (MIC/MICwild-type) [4] was 8, the resistance level (MIC/MICwild-type) (MIC/MICwild-type) [5] was 8 and the cross-resistance level (MIC/MICwild-type) to Sal (MIC/MICwild-type) [6] was 1. For the same compound, the resistance level (MIC/MICwild-type) (MIC/MICwild-type) [7] was over 16, the resistance level (MIC/MICwild-type), plasmid-borne rpoC (MIC/MICwild-type) [8] was 4 and the resistance level (MIC/MICwild-type) (MIC/MICwild-type) [9] was over 16. The cross-resistance level (MIC/MICwild-type) to Sal (MIC/MICwild-type) [10] was 1, the resistance level (MIC/MICwild-type) (MIC/MICwild-type) [11] was over 16 and the resistance level (MIC/MICwild-type), plasmid-borne rpoB (MIC/MICwild-type) [12] was 2. It also gave a resistance level (MIC/MICwild-type) (MIC/MICwild-type) [13] of over 16, a resistance level (MIC/MICwild-type), plasmid-borne rpoC (MIC/MICwild-type) [13] of 8 and a resistance level (MIC/MICwild-type) (MIC/MICwild-type) [14] of over 16. The resistance level (MIC/MICwild-type) (MIC/MICwild-type) [15] was over 16, the resistance level (MIC/MICwild-type) (MIC/MICwild-type) [16] was over 16 and the MIC (broth microdilution, D21f2tolC pRL663 and D21f2tolC pRL706 derivatives) [17] was 0.098 µg/ml. The MIC (broth microdilution, E. coli D21f2tolC) [17] was 0.024 µg/mL, the resistance level (MIC/MICwild-type) (MIC/MICwild-type) [18] was 16 and the resistance level (MIC/MICwild-type) (MIC/MICwild-type) [19] was over 16. It also gave a resistance level (MIC/MICwild-type), plasmid-borne rpoB (MIC/MICwild-type) [20] of 4, a resistance level (MIC/MICwild-type) (MIC/MICwild-type) [21] of over 16 and a resistance level (MIC/MICwild-type) (MIC/MICwild-type) [22] of 16. For the same compound, the resistance level (MIC/MICwild-type) (MIC/MICwild-type) [23] was over 16, the resistance level (MIC/MICwild-type) (MIC/MICwild-type) [24] was over 16 and the cross-resistance level (MIC/MICwild-type) to Sal (MIC/MICwild-type) [25] was 1. It also gave a resistance level (MIC/MICwild-type) (MIC/MICwild-type) [26] of 16, a resistance level (MIC/MICwild-type) (MIC/MICwild-type) [27] of over 16 and a cross-resistance level (MIC/MICwild-type) to Sal (MIC/MICwild-type) [28] of 1. The resistance level (MIC/MICwild-type), plasmid-borne rpoB (MIC/MICwild-type) [29] was 8, the resistance level (MIC/MICwild-type) (MIC/MICwild-type) [30] was over 16 and the resistance level (MIC/MICwild-type) (MIC/MICwild-type) [31] was 16.
